From patent publication US20070003547A1 (published 2007)

B1: humanized D1.3 Fab (Fab, V domains shown)
VH: QVQLQESGPGLVKPSETLSLTCTVSGGSVSGYGVNWIRQPPGKGLEWIGMIWGDGNTDYNSSLKSRVTISVDTSKNQFSLKLSSVTAADTAVYYCARERDYRLDYWGQGTLVTVSS
VL: AIRMTQSPFSLSASVGDRVTITCRASGNIHNYLAWYQQKPAKAPKLFIYYTTTLADGVPSRFSGSGSGTDYTLTISSLQPEDFATYYCQHFWSTPRTFGGGTKVEIKR
B2: humanized BCF2 Fab fragment (Fab, V domains shown)
VH: EVQLVQSGAEVKKPGATVKISCKVSGYTFTDHTMNWVQQAPGKGLEWMGLINPFNGDATYKQKFQGRVTITADTSTDTAYMELSSLRSEDTAVYYCARYGNYAMDYWGQGTTVTVSS
VL: DIVMTQTPLSLSVTPGQPASISCKASQSVDFDGESYMNWYLQKPGQPPQLLIYVVSNLESGVPDRFSGSGSGTDFTLKISRVEAEDVGVYYCQQSNEDPLTFGGGYKVEIKR
B3: Fab fragment comprised of mouse 9.3 variable domains and human constant domains (Fab, V domains shown)
VH: EVKLQQSGPGLVTPSQSLSITCTVSGFSLSDYGVHWVRQSPGQGLEWLGVIWAGGGTNYNSALMSRKSISKDNSKSQVFLKMNSLQADDTAVYYCARDKGYSYYYSMDYWGQGTSVTVSS
VL: DIELTQSPASLAVSLGQRATISCRASESVEYYVTSLMQWYQQKPGQPPKLLIFAASNVESGVPARFSGSGSGTNFSLNIHPVDEDDVAMYFCQQSRKVPYTFGGGTKLEIKR
B4: (Fab)'2 fragment of mouse BCF2 IgG (other)
chain 1: DIVLTQSPVSLAVSVGQRATISCKASQSVDFDGESYMNWYQQKPGQPPKLLIYVVSNLESGIPARFSGSGSGTDFTLNIHPVEEEDAATYYCQQSNEDPLTFGAGTNLELKR
chain 2: EVQLQQSGPELVKPGASMKISCKVSGYSFTDHTMNWVKQSHGKNLELIGLINPFNGDATYKQKFTGKATLTVDRSSSTAFMELLSLTSEDSAVYYCARYGNYAMDYWGQGTSVTVSS

What was measured:
chicken lysozyme = molecular target: T1, chicken lysozyme (chicken, UniProt P00698 19-147); experiment: fluorescence quench titration (FIG. 7 legend)
T1 construct: The assay paragraph says only 'lysozyme'; also called chicken lysozyme antigen

scorpion toxin = scorpion toxin (Centruroides noxius, UniProt P01495 17-82); experiment: BIAcore SPR, toxin immobilized, antibody in solution, from kinetic rate constants
CD28Ig = CD28Ig (human, UniProt P10747 19-152); experiment: ELISA, CD28Ig coated plates, anti-human k conjugate

Row | Binder | Kd (scorpion toxin) [nM] | also measured
1 | B1 |  | Ka (chicken lysozyme): > 1e+08 M⁻¹
2 | B2 | 140 | 
3 | B3 |  | EC50 (CD28Ig): 20 nM
4 | B4 | 10 | 
